Test results from paper PMC11532494 (Nature Communications, 2024).
“And” between values parts separate entries of the source, which are not always exact repeats. Equal entries are not always repeated. Where two headings read alike, the source gives them in different places. No end group written: not given here. *: point of attachment. AMC = Cc1cc(=O)oc2cc(N*)ccc12

Legend:
KpHdaH (1b) = KpHdaH (1b) (Klebsiella pneumoniae, UniProt A0A377Z5F6); assay type: biochemical; details: KpHdaH (1b)
Controls = test: Substrate screening assay (acyl-peptide-AMC), control enzymes; assay type: biochemical
PsApaH (4) = PsApaH (4) (Pseudomonas sp. M30-35, UniProt A0A1Y0KY79); assay type: biochemical; details: PsApaH (4)
Procedure: (§1) Experiments with SIRT2 and SIRT5 were supplemented with NAD^+ (500 µM). Thereafter, a solution of trypsin (25 µL, 5.0 mg/mL; final concentration of 2.5 mg/mL) was added, and the development of the assay was allowed to proceed for 90 min at room temperature before fluorescence analysis. […] To this end, a single category is given to all conversions >48% on the heatmap. […] For the H4-derived peptide LGKbio no positive control was available.

BsAcuC (2c) = molecular target: T1, BsAcuC (2c) (Bacillus subtilis, UniProt P39067); test: Substrate screening assay (acyl-peptide-AMC); assay type: biochemical; details: BsAcuC (2c); for [AMC]: Transform RFU in [AMC]
T1 construct: made in house; host or cells: E. coli BL21 (DE3)
T1 sequence (P39067 1-387): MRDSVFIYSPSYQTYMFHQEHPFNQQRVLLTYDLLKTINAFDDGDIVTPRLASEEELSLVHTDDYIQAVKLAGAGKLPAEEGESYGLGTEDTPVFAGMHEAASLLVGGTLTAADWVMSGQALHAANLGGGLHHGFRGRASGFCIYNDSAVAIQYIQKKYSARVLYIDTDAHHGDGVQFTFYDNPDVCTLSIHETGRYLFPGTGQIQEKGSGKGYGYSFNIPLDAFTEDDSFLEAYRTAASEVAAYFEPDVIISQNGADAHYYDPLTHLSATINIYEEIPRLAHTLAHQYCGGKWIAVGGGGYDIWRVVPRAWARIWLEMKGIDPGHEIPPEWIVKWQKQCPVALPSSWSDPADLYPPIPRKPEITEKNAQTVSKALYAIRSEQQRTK
Procedure: as §1

VcHdaH (5b) = assay type: biochemical, Vibrio cholerae; details: VcHdaH (5b); for [AMC]: Transform RFU in [AMC]
VsHdaH (1b) = assay type: biochemical, Vibrio sp.; details: VKDAC
RsPrpH (1b) = test: Substrate screening assay (acyl-peptide-AMC); assay type: biochemical, Rhizorhabdus sp.; details: RsPrpH (1b); for [AMC]: Transform RFU in [AMC]
RwDmhA (1b) = RwDmhA (1b) (Rhizorhabdus wittichii, UniProt A0A067XIQ6); assay type: biochemical; details: RwDmhA (1b)
[1] = Transform RFU in [AMC], Controls, Sample 1
[2] = Transform RFU in [AMC], Controls, Sample 2
[3] = Transform RFU*2, Controls, Sample 1
[4] = Transform RFU*2, Controls, Sample 2

Substance	Relative Fluorescene Units (RFU) (KpHdaH (1b); Sample 1)	Relative Fluorescene Units (RFU) (KpHdaH (1b); Sample 2)	Relative Fluorescene Units (RFU) (KpHdaH (1b); Transform RFU*2, Sample 1)	Relative Fluorescene Units (RFU) (KpHdaH (1b); Transform RFU*2, Sample 2)	Relative Fluorescene Units (RFU) (PsApaH (4); Sample 1)	Relative Fluorescene Units (RFU) (PsApaH (4); Sample 2)	Relative Fluorescene Units (RFU) (PsApaH (4); Transform RFU*2, Sample 1)	Relative Fluorescene Units (RFU) (BsAcuC (2c); Sample 1)	Relative Fluorescene Units (RFU) (BsAcuC (2c); Sample 2)	[AMC] (BsAcuC (2c); Sample 1) [nM]	[AMC] (BsAcuC (2c); Sample 2) [nM]	Relative Fluorescene Units (RFU) (BsAcuC (2c); Transform RFU*2, Sample 1)	Relative Fluorescene Units (RFU) (BsAcuC (2c); Transform RFU*2, Sample 2)	[AMC] (VcHdaH (5b); Sample 1) [nM]	[AMC] (VcHdaH (5b); Sample 2) [nM]	Relative Fluorescene Units (RFU) (VcHdaH (5b); Transform RFU*2, Sample 1)	Relative Fluorescene Units (RFU) (VcHdaH (5b); Transform RFU*2, Sample 2)	Relative Fluorescene Units (RFU) (VcHdaH (5b); Sample 1)	Relative Fluorescene Units (RFU) (VcHdaH (5b); Sample 2)	Relative Fluorescene Units (RFU) (VsHdaH (1b); Transform RFU*2, Sample 1)	other results
QPKKhex (QPKK-{AMC}; not fully specified (residue 4); printed as QPKKhex; also: hexanoyl-lysine (which Lys not given here); UniProt P04637 317-320, looked up, fragment)	170	14	340	28	128	61	256	1720	1255	1679.69	1225.59	3440	2510	-22.46	121.09	-46	248	-23	124	72	[AMC] (Controls): 3.01563 µM and 4.0166 µM; Relative Fluorescene Units (RFU) (PsApaH (4); Transform RFU*2, Sample 2): 122 RFU; Relative Fluorescene Units (RFU) (VsHdaH (1b); Transform RFU*2, Sample 2): 194 RFU; Relative Fluorescene Units (RFU) (VsHdaH (1b); Sample 1): 36 RFU; Relative Fluorescene Units (RFU) (VsHdaH (1b); Sample 2): 97 RFU
QPKKmyr (QPKK-{AMC}; not fully specified (residue 4); printed as QPKKmyr; also: myristoyl-lysine (which Lys not given here); UniProt P04637 317-320, looked up, fragment)	178	116	356	232	40	113	80	313	767	305.66	749.02	626	1534	-96.68	-269.53	-198	-552	-99	-276	354	Relative Fluorescene Units (RFU) (RsPrpH (1b); Sample 1): -108 RFU; Relative Fluorescene Units (RFU) (RsPrpH (1b); Sample 2): -824 RFU; [AMC] (RsPrpH (1b); Sample 1): -105.47 nM; [AMC] (RsPrpH (1b); Sample 2): -804.69 nM; Relative Fluorescene Units (RFU) (RsPrpH (1b); Transform RFU*2, Sample 1): -216 RFU; Relative Fluorescene Units (RFU) (RsPrpH (1b); Transform RFU*2, Sample 2): -1648 RFU; Relative Fluorescene Units (RFU) (Controls): 6155 RFU and 7393 RFU; [AMC] (Controls; [1]): 6.01074 µM; [AMC] (Controls; [2]): 7.21973 µM; Relative Fluorescene Units (RFU) (Controls; [3]): 12310 RFU; Relative Fluorescene Units (RFU) (Controls; [4]): 14786 RFU; Relative Fluorescene Units (RFU) (PsApaH (4); Transform RFU*2, Sample 2): 226 RFU; Relative Fluorescene Units (RFU) (RwDmhA (1b); Sample 1): -346 RFU; Relative Fluorescene Units (RFU) (RwDmhA (1b); Sample 2): -865 RFU; Relative Fluorescene Units (RFU) (RwDmhA (1b); Transform RFU*2, Sample 1): -692 RFU; Relative Fluorescene Units (RFU) (RwDmhA (1b); Transform RFU*2, Sample 2): -1730 RFU; Relative Fluorescene Units (RFU) (VsHdaH (1b); Transform RFU*2, Sample 2): -1178 RFU; Relative Fluorescene Units (RFU) (VsHdaH (1b); Sample 1): 177 RFU; Relative Fluorescene Units (RFU) (VsHdaH (1b); Sample 2): -589 RFU
QPKKlau (QPKK-{AMC}; not fully specified (residue 4); printed as QPKKlau; also: lauroyl-lysine (which Lys not given here); UniProt P04637 317-320, looked up, fragment)	-177	-96	-354	-192	196	66	392	1004	695	980.47	678.71	2008	1390	-112.30	-47.85	-230	-98	-115	-49	-308	[AMC] (Controls): 10.32715 µM and 12.34863 µM; Relative Fluorescene Units (RFU) (PsApaH (4); Transform RFU*2, Sample 2): 132 RFU; Relative Fluorescene Units (RFU) (VsHdaH (1b); Transform RFU*2, Sample 2): 12 RFU; Relative Fluorescene Units (RFU) (VsHdaH (1b); Sample 1): -154 RFU; Relative Fluorescene Units (RFU) (VsHdaH (1b); Sample 2): 6 RFU
QPKKoct (QPKK-{AMC}; not fully specified (residue 4); printed as QPKKoct; also: octanoyl-lysine (which Lys not given here); UniProt P04637 317-320, looked up, fragment)	-13	-43	-26	-86	88	73	176	2401	1622	2344.73	1583.98	4802	3244	67.38	71.29	138	146	69	73	248	Relative Fluorescene Units (RFU) (RsPrpH (1b); Sample 1): 4 RFU; Relative Fluorescene Units (RFU) (RsPrpH (1b); Sample 2): 72 RFU; [AMC] (RsPrpH (1b); Sample 1): 3.91 nM; [AMC] (RsPrpH (1b); Sample 2): 70.31 nM; Relative Fluorescene Units (RFU) (RsPrpH (1b); Transform RFU*2, Sample 1): 8 RFU; Relative Fluorescene Units (RFU) (RsPrpH (1b); Transform RFU*2, Sample 2): 144 RFU; Relative Fluorescene Units (RFU) (Controls): 6579 RFU and 10102 RFU; [AMC] (Controls; [1]): 6.4248 µM; [AMC] (Controls; [2]): 9.86523 µM; Relative Fluorescene Units (RFU) (Controls; [3]): 13158 RFU; Relative Fluorescene Units (RFU) (Controls; [4]): 20204 RFU; Relative Fluorescene Units (RFU) (RwDmhA (1b); Sample 1): 53 RFU; Relative Fluorescene Units (RFU) (RwDmhA (1b); Sample 2): 75 RFU; Relative Fluorescene Units (RFU) (RwDmhA (1b); Transform RFU*2, Sample 1): 106 RFU; Relative Fluorescene Units (RFU) (RwDmhA (1b); Transform RFU*2, Sample 2): 150 RFU; Relative Fluorescene Units (RFU) (VsHdaH (1b); Transform RFU*2, Sample 2): 194 RFU; Relative Fluorescene Units (RFU) (VsHdaH (1b); Sample 1): 124 RFU; Relative Fluorescene Units (RFU) (VsHdaH (1b); Sample 2): 97 RFU
QPKKpal (QPKK-{AMC}; not fully specified (residue 4); printed as QPKKpal; also: palmitoyl-lysine (which Lys not given here); UniProt P04637 317-320, looked up, fragment)	9	-4	18	-8	40	14	80	139	15	135.74	14.65	278	30	22.46	-39.06	46	-80	23	-40	82	[AMC] (Controls): 8.07129 µM and 10.51367 µM; Relative Fluorescene Units (RFU) (PsApaH (4); Transform RFU*2, Sample 2): 28 RFU; Relative Fluorescene Units (RFU) (VsHdaH (1b); Transform RFU*2, Sample 2): -38 RFU; Relative Fluorescene Units (RFU) (VsHdaH (1b); Sample 1): 41 RFU; Relative Fluorescene Units (RFU) (VsHdaH (1b); Sample 2): -19 RFU
